The values that follow come from patent US20230051715A1 (MABWELL THERAPEUTICS, published 2023).

In test [1] the target is T1, cynomolgus monkey C1s (produced in house) (cynomolgus monkey, UniProt P09871 16-685 (human entry), limits assumed).
T1 construct: also called CyC1s
T1 chain: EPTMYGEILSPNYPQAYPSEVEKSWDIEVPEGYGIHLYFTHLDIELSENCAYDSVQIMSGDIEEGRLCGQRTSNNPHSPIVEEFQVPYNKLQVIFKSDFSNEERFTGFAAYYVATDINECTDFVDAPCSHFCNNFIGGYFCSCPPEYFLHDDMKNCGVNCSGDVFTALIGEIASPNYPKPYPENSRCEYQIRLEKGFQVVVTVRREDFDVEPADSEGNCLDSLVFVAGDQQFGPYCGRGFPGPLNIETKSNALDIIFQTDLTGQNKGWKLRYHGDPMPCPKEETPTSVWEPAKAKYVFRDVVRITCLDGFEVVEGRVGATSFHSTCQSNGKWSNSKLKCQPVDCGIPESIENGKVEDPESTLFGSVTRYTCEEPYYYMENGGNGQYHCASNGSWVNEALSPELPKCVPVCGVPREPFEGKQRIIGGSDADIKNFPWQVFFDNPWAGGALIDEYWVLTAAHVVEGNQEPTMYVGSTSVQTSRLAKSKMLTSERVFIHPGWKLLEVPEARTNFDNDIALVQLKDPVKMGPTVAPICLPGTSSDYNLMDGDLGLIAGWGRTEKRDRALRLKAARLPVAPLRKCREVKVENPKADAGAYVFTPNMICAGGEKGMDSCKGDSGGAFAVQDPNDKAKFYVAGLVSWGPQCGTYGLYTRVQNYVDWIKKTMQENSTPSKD
Description: BLI (Octet RED96e), antibody on AHC biosensor; C1s Species: Cyno Monkey; R^2 0.9993. The text has this: (§1) At last, analyte was dissociated in 1×KB for 360 sec. Data analysis was done using OCTET® Data Analysis HT Software (Sartorius AG).

The target of test [2] is T2, full-length human C1s (produced in house) (human, UniProt P09871 16-688).
T2 construct: Called full-length; Partly auto-cleaved at R422-I423 on blots; also called HuC1s; Hu C1s
T2 sequence: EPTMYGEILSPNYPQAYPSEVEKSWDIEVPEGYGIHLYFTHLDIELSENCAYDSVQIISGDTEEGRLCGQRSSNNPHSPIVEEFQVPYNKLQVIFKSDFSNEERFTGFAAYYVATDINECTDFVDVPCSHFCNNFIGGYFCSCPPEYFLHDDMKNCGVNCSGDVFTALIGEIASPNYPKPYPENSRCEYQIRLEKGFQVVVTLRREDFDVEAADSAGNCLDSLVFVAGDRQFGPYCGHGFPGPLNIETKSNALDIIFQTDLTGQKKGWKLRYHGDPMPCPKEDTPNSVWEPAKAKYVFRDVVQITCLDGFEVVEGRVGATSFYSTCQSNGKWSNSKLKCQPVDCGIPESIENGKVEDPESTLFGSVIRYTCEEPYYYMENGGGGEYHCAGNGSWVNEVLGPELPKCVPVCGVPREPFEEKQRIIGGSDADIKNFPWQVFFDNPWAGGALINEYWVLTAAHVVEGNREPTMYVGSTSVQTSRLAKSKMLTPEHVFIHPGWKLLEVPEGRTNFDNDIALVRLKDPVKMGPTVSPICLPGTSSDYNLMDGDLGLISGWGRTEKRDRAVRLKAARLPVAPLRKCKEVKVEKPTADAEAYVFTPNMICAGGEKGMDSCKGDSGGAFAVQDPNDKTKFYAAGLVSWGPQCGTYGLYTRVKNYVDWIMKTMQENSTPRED
Kind of test: BLI (Octet RED96e), antibody on AHC biosensor; C1s Species: Human; R^2 0.9999.
From the text: as §1

Test [3] addresses T3, rat C1s (produced in house) (rat, UniProt Q6P6T1 16-688).
T3 construct: also called RaC1s
T3 sequence: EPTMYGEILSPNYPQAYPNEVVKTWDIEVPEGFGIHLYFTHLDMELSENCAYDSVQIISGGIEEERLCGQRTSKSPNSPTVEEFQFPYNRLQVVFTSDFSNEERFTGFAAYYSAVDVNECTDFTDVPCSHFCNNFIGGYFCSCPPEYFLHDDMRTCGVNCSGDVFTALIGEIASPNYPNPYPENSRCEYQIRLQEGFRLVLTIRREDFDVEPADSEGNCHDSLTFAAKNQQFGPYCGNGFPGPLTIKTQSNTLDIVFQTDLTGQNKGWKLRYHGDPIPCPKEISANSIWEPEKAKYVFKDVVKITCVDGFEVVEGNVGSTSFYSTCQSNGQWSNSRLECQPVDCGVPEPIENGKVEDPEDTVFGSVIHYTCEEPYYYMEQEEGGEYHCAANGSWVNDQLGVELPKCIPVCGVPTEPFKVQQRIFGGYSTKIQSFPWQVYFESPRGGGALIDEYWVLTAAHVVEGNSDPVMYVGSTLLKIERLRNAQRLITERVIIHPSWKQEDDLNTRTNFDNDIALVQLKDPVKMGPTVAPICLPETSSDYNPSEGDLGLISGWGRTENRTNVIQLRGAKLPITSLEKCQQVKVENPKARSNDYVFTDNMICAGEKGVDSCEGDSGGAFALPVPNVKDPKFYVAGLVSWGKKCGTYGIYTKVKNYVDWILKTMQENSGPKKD
Description: BLI (Octet RED96e), antibody on AHC biosensor; C1s Species: Rat; R^2 0.9776.
From the text: as §1

Test [4] concerns the target T2, full-length human C1s (produced in …). Description: BLI (Octet RED96e), antibody on AHC biosensor; C1s Species: Human; R^2 0.9983.
From the text: as §1

B1: Anti-C1s antibody hz2-8 (H1L2 G80A/T82A) (antibody, V domains shown)
VH: QVQLVQSGAEVKKPGASVKVSCKASGFNIKEYYMHWVRQAPEQGLEWMGWIDPENADAIYAQKFQGRVTITADTSTNTAYMELSSLRSEDTAVYYCARSRLFFAYWGQGTLVTVSS
VL: DIQMTQSPKSLSASVGDRVTITCRASQDVRTALDWYQQKPGQSPKLLIYSASYRYSGVPSRFSGSGSGTDFTLTISSLQPEDFATYYCQQQYTTPYTFGQGTKLEIKR
notes: Humanized variant with G80A and T82A in HC CDR2 (already in the entry), human IgG1 / kappa
In test [1], B1 gave a Kd of 3.5 nM, a koff of 0.00081 s⁻¹ and a kon of 230000 M⁻¹ s⁻¹.

B2: Anti-C1s antibody hz2-7(H1L2) (antibody, V domains shown)
VH: EVQLLESGGGLVQPGGSLRLSCAASGFTFSNYFMNWVRQAPGKGLEWVSEIRLKFTNYATHYADSVKGRFTISRDDSKSTLYLQMNSLRAEDTAVYYCTRDYGSRNGYFDYWGQGTLVTVSS
VL: DIVMTQTPLSLPVTPGEPASISCRSSKSLLHSNGNTFLYWFLQKPGQSPQLLIYRMSNLASGVPDRFSGSGSGTDFTLKISRVEAEDVGVYYCMQHLEYPYTFGGGTKLEIKR
notes: Humanized, human IgG1 / kappa; also called hz2-7(1L2)
On to B2, for which, in test [2], binding was put at a Kd of 0.12 nM, the koff amounted to 4.6e-05 s⁻¹ and the kon is 390000 M⁻¹ s⁻¹.

B3: Anti-C1s antibody 2-8 (antibody, V domains shown)
VH: EVQLQQSGAELVRPGALVKLSCKASGFNIKEYYMHWVKQRPEQGLEWIGWIDPENGDTIYDPKFQGKASITADTSSNTAYLQLSSLTSEDTAVYYCARSRLFFAYWGQGTLVTVSA
VL: DIVMTQSHKFMSTSVGDRVSFTCKASQDVRTAVDWYQQKPGQSPKLLIYSASYRYTGVPDRFTGTGSGTDFTFTISSVQAEDLAVYFCQQQYTTPYTFGGGTKLEIKT
notes: the HC/LC entries may hold it too; also called clone 2-8
Regarding B3, in test [3], binding was put at a Kd of 17 nM, the koff was found to be 0.0012 s⁻¹ and the on-rate (kon) was 68000 M⁻¹ s⁻¹.

B4: Anti-C1s antibody 2-7 (antibody, human IgG1, kappa, V domains shown)
VH: EVKLEESGGGLVPPGGSMKLSCVASGFTFSNYFMNWVRQSPEKGLEWVAEIRLKFTNYATHYAESVEGRFTISRDDSKSSVYLQMNNLRAEDTGIYYCTRDYGSRNGYFDYWGQGTTLTVSS
VL: DIVMTQAAPSVPVTPGESVSISCRSSKSLLHSNGNTFLYWFLQRPGQSPQLLIYRMSNLASGVPDRFSGSGSGTAFTLRVSRVEAEDVGIYYCMQHLEYPYTFGGGTKLEIKT
notes: the HC/LC entries may hold it too; also called clone 2-7
In test [4], B4 registered a dissociation constant Kd of 0.012 nM, a koff of 3.9e-05 s⁻¹ and a kon of 3.2e+06 M⁻¹ s⁻¹.
